{"source": "paper PMC4012256", "assay": "HEK293T adhesion to FN-coated surface, crystal violet, Ca2+-Mg2+", "conditions": "glycan lost; control: αVβ3(N339S)"}
{"protein": "integrin αV subunit (of αVβ3): αV(N266Q)β3(N339S) (protein) parent chain: MAFPPRRRLRLGPRGLPLLLSGLLLPLCRAFNLDVDSPAEYSGPEGSYFGFAVDFFVPSASSRMFLLVGAPKANTTQPGIVEGGQVLKCDWSSTRRCQPIEFDATGNRDYAKDDPLEFKSHQWFGASVRSKQDKILACAPLYHWRTEMKQEREPVGTCFLQDGTKTVEYAPCRSQDIDADGQGFCQGGFSIDFTKADRVLLGGPGSFYWQGQLISDQVAEIVSKYDPNVYSIKYNNQLATRTAQAIFDDSYLGYSVAVGDFNGDGIDDFVSGVPRAARTLGMVYIYDGKNMSSLYNFTGEQMAAYFGFSVAATDINGDDYADVFIGAPLFMDRGSDGKLQEVGQVSVSLQRASGDFQTTKLNGFEVFARFGSAIAPLGDLDQDGFNDIAIAAPYGGEDKKGIVYIFNGRSTGLNAVPSQILEGQWAARSMPPSFGYSMKGATDIDKNGYPDLIVGAFGVDRAILYRARPVITVNAGLEVYPSILNQDNKTCSLPGTALKVSCFNVRFCLKADGKGVLPRKLNFQVELLLDKLKQKGAIRRALFLYSRSPSHSKNMTISRGGLMQCEELIAYLRDESEFRDKLTPITIFMEYRLDYRTAADTTGLQPILNQFTPANISRQAHILLDCGEDNVCKPKLEVSVDSDQKKIYIGDDNPLTLIVKAQNQGEGAYEAELIVSIPLQADFIGVVRNNEALARLSCAFKTENQTRQVVCDLGNPMKAGTQLLAGLRFSVHQQSEMDTSVKFDLQIQSSNLFDKVSPVVSHKVDLAVLAAVEIRGVSSPDHVFLPIPNWEHKENPETEEDVGPVVQHIYELRNNGPSSFSKAMLHLQWPYKYNNNTLLYILHYDIDGPMNCTSDMEINPLRIKISSLQTTEKNDTVAGQGERDHLITKRDLALSEGDIHTLGCGVAQCLKIVCQVGRLDRGKSAILYVKSLLWTETFMNKENQNHSYSLKSSASFNVIEFPYKNLPIEDITNSTLVTTNVTWGIQPAPMPVPVWVIILAVLAGLLLLAVLVFVMYRMGFFKRVRPPQEEQEREQLQPHENGEGNSET", "values": [{"measurement": "other: cell adhesion, percent_of_wt", "value": "decreases"}]}
